Patent publication US12692524B2, “Sialyltransferases and their use in producing sialylated oligosaccharides” (Chr. Hansen A/S, priority 2017, dated 2026)

Assays:
[1] = In vivo screening in E. coli #1363/#1730 with lactose as acceptor, sialyllactose identified by TLC; format: cell-based, Escherichia coli BL21(DE3); conditions: for Described activity confirmed in the lactose screening: in words
Description: Escherichia coli BL21(DE3) #1363 and #1730 harbouring plasmids encoding for 100 sialyltransferases were grown at 30° C. in 100 ml shake flasks filled with 20 ml of mineral salts medium (Samain et al., J. Biotech. 1999, 72:33-47) supplemented with 2% (wt/vol) glucose, ampicillin 100 μg ml^−1, kanamycin 15 μg ml^−1 and zeocin 40 μg ml^−1. When the cultures reached an OD600 of 0.1 to 0.3, gene expression was induced by addition of 0.3 mM IPTG. After an incubation for one hour, 1.5 mM lactose was added to #1363 cultures whereas 1.5 mM lactose as well as 1.5 mM sialic acid was added to #1730 cultures. The incubation continued for 72 to 96 hours. Then, cells were harvested by centrifugation and mechanically disrupted in a defined volume using glass beads. Subsequently, samples were applied to thin layer chromatography (TLC) on Silica Gel 60 F254 (Merck KGaA, Darmstadt, Germany). A mixture of butanol:acetone:acetic acid:H2O (35/35/7/23 (v/v/v/v)) was used as mobile phase. For detection of the separated substances, the TLC plate was soaked with thymol reagent (0.5 g thymol solved in 95 ml ethanol, 5 ml sulfuric acid added) and heated.
In the entire screening, thirty two genes were identified to encode for α-2,3-sialyltransferases, thus producing 3′-SL. 19 enzymes synthesized 6′-SL and were depicted as α-2,6-sialyltransferases. An α-2,3- as well as an α-2,6-sialyltransferase activity could only be observed for 3 enzymes. […] The screening appeared highly accurate since the described activities of extensively characterized sialyltransferases, e. g. […] Regarding the product formation, the experimental setting allowed a semi-quantitative comparison of the screened enzymes. But to achieve deeper knowledge about their kinetic properties, the 3 potentially best performing α-2,3- and α-2,6-sialyltransferases were applied to in vitro assays.

[2] = In vitro sialylation of LNT by protein extracts, LST-a/-b quantified by LC-MS/MS; format: biochemical; conditions: for Relative efficacy of sialyltransferases regarding in-vitro production of sialyllacto-N-tetraoses: LST-a / Relative efficacy of sialyltransferases regarding in-vitro production of sialyllacto-N-tetraoses: LST-b: 5 mM LNT, 10 mM CMP-Neu5Ac, 16 hours, LC-MS/MS, relative quantity, n.d.: not detectable
Description: Escherichia coli BL21(DE3) harbouring plamids encoding for 100 sialyltransferases were grown at 30° C. in 100 ml shake flasks filled with 20 ml of 2YT medium supplemented with ampicillin 100 μg ml^−1. When the cultures reached an OD600 of 0.1 to 0.3, gene expression was induced by addition of 0.3 mM IPTG and the incubation was continued for 12 to 16 hours. Cells were harvested by centrifugation and mechanically disrupted in a defined volume of 50 mM Tris-HCl pH7.5 using glass beads. The protein extract was kept on ice until the assay started. The in vitro assay was carried out in a total volume of 25 μl including 50 mM Tris-HCl pH7.5, 5 mM MgCl2, 10 mM CMP-Neu5Ac and 5 mM LNT. The assay started with the addition of 3 μl protein extract and continued for 16 hours. Product formation was determined by mass spectrometry.
Mass spectrometry analysis was performed by MRM (multiple reaction monitoring) using a LC Triple-Quadrupole MS detection system. Precursor ions are selected and analyzed in quadrupole 1, fragmentation takes place in the collision cell using argon as CID gas, selection of fragment ions is performed in quadrupole 3. Chromatographic separation of lactose, 3′-Sialyllactose and 6′-Sialyllactose after dilution of culture supernatant 1:100 with H2O (LC/MS Grade), was performed on a XBridge Amide HPLC column (3.5 μm, 2.1×50 mm (Waters, USA) with a XBridge Amide guard cartridge (3.5 μm, 2.1×10 mm) (Waters, USA). Column oven temperature of the HPLC system was 50° C. The mobile phase was composed of acetonitrile:H2O with 10 mM ammonium acetate. A 1 μl sample was injected into the instrument; the run was performed for 3.60 min with a flow rate of 400 μl/min. 3′-Sialyllactose and 6′-Sialyllactose were analyzed by MRM in ESI positive ionization mode. The mass spectrometer was operated at unit resolution. Sialyllactose forms an ion of m/z 656.2 [M+Na]. The precursor ion of Sialyllactose was further fragmented in the collision cell into the fragment ions m/z 612.15, m/z 365.15 and m/z 314.15. Collision energy, Q1 and Q3 Pre Bias were optimized for each analyte individually. Chromatographic separation of lactose, LNT-II, LNT and LST-a or -b after dilution of particle-free biocatalysis-reaction or crude extract, respectively, 1:50 with H2O (LC/MS Grade), was performed on a XBridge Amide HPLC column (3.5 μm, 2.1×50 mm (Waters, USA) with a XBridge Amide guard cartridge (3.5 μm, 2.1×10 mm) (Waters, USA). Column oven was run at 35° C. The mobile phase was composed of acetonitrile:H2O with 0.1% ammonium hydroxide. A 1 μl sample was injected into the instrument; the run was performed for 3.50 min with a flow rate of 300 μl/min. Lactose, LNT-II, LNT as well as LST-a and -b were analyzed by MRM in ESI negative ionization mode. The mass spectrometer was operated at unit resolution. Lactose forms an ion of m/z 341.00 [M−H]. The precursor ion of Lactose was further fragmented in the collision cell into the fragment ions m/z 179.15, m/z 161.15 and m/z 101.05. LNT-II forms an ion of m/z 544.20 [M−H]. The precursor ion of LNT-II was further fragmented into the fragment ions m/z 382.10, m/z 161.00 and m/z 112.90. LNT forms an ion of m/z 706.20 [M−H]. The precursor ion of LNT was further fragmented into the fragment ions m/z 382.10, m/z 202.10 and m/z 142.00. LST-a and -b forms an ion of m/z 997.20 [M−H]. The precursor ion of LST-a and-b was further fragmented into the fragment ions m/z 290.15, m/z 202.15 and m/z 142.15. Collision energy, Q1 and Q3 Pre Bias were optimized for each analyte individually. Quantification methods were established using commercially available standards (Carbosynth, Compton, UK).
Twenty eight genes were identified to produce LST-a whereas only 6 enzymes synthesized LST-b. […] Irrespectively of the protein overexpression level, sialyltransferases that produced best were selected for determination of Km and Vmax.

| Molecule | Described activity confirmed in the lactose screening [1] | Relative efficacy of sialyltransferases regarding in-vitro production of sialyllacto-N-tetraoses: LST-a [2] | Relative efficacy of sialyltransferases regarding in-vitro production of sialyllacto-N-tetraoses: LST-b [2] | further results |
| --- | --- | --- | --- | --- |
| SiaT1: sialyltransferase of Neisseria meningitidis, acc. U60660, SEQ ID NO: 5 (protein, listed as Neisseria meningitidis) MGLKKACLTVLCLIVFCFGIFYTFDRVNQGERNAVSLLKEKLFNEEGEPVNLIFCYTILQMKVAERIMAQHPGERFYVVLMSENRNEKYDYYFNQIKDKAERAYFFHLPYGLNKSFNFIPTMAELKVKSMLLPKVKRIYLASLEKVSIAAFLSTYPDAEIKTFDDGTGNLIQSSSYLGDEFSVNGTIKRNFARMMIGDWSIAKTRNASDEHYTIFKGLKNIMDDGRRKMTYLPLFDASELKTGDETGGTVRILLGSPDKEMKEISEKAAKNFKIQYVAPHPRQTYGLSGVTTLNSPYVIEDYILREIKKNPHTRYEIYTFFSGAALTMKDFPNVHVYALKPASLPEDYWLKPVYALFTQSGIPILTFDDKN | could be confirmed | 2.98 × 10^3 | – | Production of sialyllactose in-vivo ([1]; 1.5 mM lactose, 72 to 96 hours, qualitative via TLC): 3′-SL; Described activity to sialylate LNT verified ([2]; in words): could be verified |
| SiaT11: sialyltransferase of Photobacterium damselae JT0160, acc. BAA25316, SEQ ID NO: 31 (protein, listed as Photobacterium damsela) MKKILTVLSIFILSACNSDNTSLKETVSSNSADVVETETYQLTPIDAPSSFLSHSWEQTCGTPILNESDKQAISFDFVAPELKQDEKYCFTFKGITGDHRYITNTTLTVVAPTLEVYIDHASLPSLQQLIHIIQAKDEYPSNQRFVSWKRVTVDADNANKLNIHTYPLKGNNTSPEMVAAIDEYAQSKNRLNIEFYTNTAHVFNNLPPIIQPLYNNEKVKISHISLYDDGSSEYVSLYQWKDTPNKIETLEGEVSLLANYLAGTSPDAPKGMGNRYNWHKLYDTDYYFLREDYLDVEANLHDLRDYLGSSAKQMPWDEFAKLSDSQQTLFLDIVGFDKEQLQQQYSQSPLPNFIFTGTTTWAGGETKEYYAQQQVNVINNAINETSPYYLGKDYDLFFKGHPAGGVINDIILGSFPDMINIPAKISFEVLMMTDMLPDTVAGIASSLYFTIPADKVNFIVFTSSDTITDREEALKSPLVQVMLTLGIVKEKDVLFWADHKVNSMEVAIDEACTRIIAKRQPTASDLRLVIAIIKTITDLERIGDVAESIAKVALESFSNKQYNLLVSLESLGQHTVRMLHEVLDAFARMDVKAAIEVYQEDDRIDQEYESIVRQLMAHMMEDPSSIPNVMKVMWAARSIERVGDRCQNICEYIIYFVKGKDVRHTKPDDFGTMLD | could be confirmed | – | 13 | – |
| SiaT3: sialyltransferase of Campylobacter jejuni strain OH4384, acc. AX934425, SEQ ID NO: 12 (protein, listed as Campylobacter jejuni) MGKKVIIAGNGPSLKEIDYSRLPNDFDVFRCNQFYFEDKYYLGKKCKAVFYNPILFFEQYYTLKHLIQNQEYETELIMCSNYNQAHLENENFVKTFYDYFPDAHLGYDFFKQLKDFNAYFKFHEIYFNQRITSGVYMCAVAIALGYKEIYLSGIDFYQNGSSYAFDTKQKNLLKLAPNFKNDNSHYIGHSKNTDIKALEFLEKTYKIKLYCLCPNSLLANFIELAPNLNSNFIIQEKNNYTKDILIPSSEAYGKFSKNIN | – | 605 | – | – |
| SiaT4: sialyltransferase of Helicobacter acinonychis, acc. NC_008229, SEQ ID NO: 11 (protein, listed as Heliobacter acinonychis) MNKKPLIIAGNGPSIKDLDYALFPKDFDVFRCNQFYFEDKYYLGREIKGVFFNAHVFDLQMKITKAIVKNGEYHPDHIYCTHVEPYGYVNGNQQLMQEYLEKHFVGVRSTYAYLKDLEPFFILHSKYRNFYDQHFTTGIMMLLVAIQLGYKEIYLCGIDFYENGFGHFYENQGGFFEEDSDPMHDKNIDIQALELAKKYAKIYALVPNSALVKMIPLSSQKGVLEKVKDRIGLGEFKREKFGQKELERQKELERQKELERQKELERQKELERQKELERQKELERQKELERQKELERQKELERQKELERQKELERQKELERQKELERQKELERQKELELERSLKARLKAVLASKGIRGDNLIIVSLKDTYRLFKGGFALLLDLKALKSIIKAFLKR | – | 654 | – | – |
| SiaT5: sialyltransferase of Helicobacter acinonychis, acc. NC_008229, SEQ ID NO: 33 (protein, listed as Heliobacter acinonychis) MGTIKKPLIIAGNGPSIKDLDYALFPKDFDVFRCNQFYFEDKYYLGREIKGVFFNPCVLSSQMQTVQYLMDNGEYSIERFFCSVSTDRHDFDGDYQTILPVDGYLKAHYPFVCDTFSLFKGHEEILKHVKYHLKTYSKELSAGVLMLLSAVVLGYKEIYLVGIDFGASSWGHFYDESQSQHFSNHMADCHNIYYDMLTICLCQKYAKLYALAPNSPLSHLLTLNPQAKYPFELLDKPIGYTSDLIISSPLEEKLLEFKNIEEKLLEFKNIEEKLLEFKNIEEKLLEFKNIEEKLLEFKNIEEKLLEFKNIEEKLLEFKNIEEKLLEFKNIEEKLLEFKNIEEKLLEFKNIEEKLLEFKNIEEKLLEFKNIEEKLLEFKNIEEKLLASRLNNILRKIKRKILPFFWGGGVTPTLKVSFRWGAA | – | – | 1 | – |
| SiaT7: sialyltransferase of Pasteurella dagmatis strain DSM 22969, acc. AFY98851, SEQ ID NO: 7 (protein, listed as Pasteurella dagmatis) MTIYLDPASLPTLNQLMHFTKESEDKETARIFGFSRFKLPEKITEQYNNIHFVEIKNNRPTEDIFTILDQYPEKLELDLHLNIAHSIQLFHPILQYRFKHPDRISIKSLNLYDDGTMEYVDLEKEENKDIKSAIKKAEKQLSDYLLTGKINFDNPTLARYVWQSQYPVKYHFLSTEYFEKAEFLQPLKTYLAGKYQKMDWSAYEKLSPEQQTFYLKLVGFSDETKQLFHTEQTKFIFTGTTTWEGNTDIREYYAKQQLNLLKHFTHSEGDLFIGDQYKIYFKGHPRGGDINDYILKHAKDITNIPANISFEILMMTGLLPDKVGGVASSLYFSLPKEKISHIIFTSNKKIKNKEDALNDPYVRVMLRLGMIDKSQIIFWDSLKQL | – | 2.25 × 10^3 | – | – |
